T1: human LY6H, endogenous on cancer cell lines (H446, DMS79, H526, MOLT3, KE-37) (human, UniProt O94772 26-115)
T1 construct: Endogenous protein on human SCLC and T-ALL cell lines
T1 sequence (looked up): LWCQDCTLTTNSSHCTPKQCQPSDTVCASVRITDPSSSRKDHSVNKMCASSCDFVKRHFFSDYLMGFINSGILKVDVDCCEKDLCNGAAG

T2: recombinant human LY6H-ECD (C-terminal histidine tag) (human, UniProt O94772 26-115)
T2 construct: The ectodomain was cloned by PCR with a non-native signal peptide and a C-terminal histidine tag; also called recombinant LY6H; hLY6H-ECD; not shown: C-terminal histidine tag
T2 sequence (looked up): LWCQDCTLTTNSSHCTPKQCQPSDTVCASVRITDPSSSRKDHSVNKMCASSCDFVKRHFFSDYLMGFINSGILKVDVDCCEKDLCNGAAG

T3: Macaca fascicularis LY6H expressed on 293T cells (plasmid BBP 492/598, M1-P140 plus Myc-DDK) (Macaca fascicularis, UniProt Q4R5M8 26-115)
T3 construct: Full construct as encoded; also called monkey LY6H; not shown: Myc-DDK tag at the C-terminus
T3 sequence: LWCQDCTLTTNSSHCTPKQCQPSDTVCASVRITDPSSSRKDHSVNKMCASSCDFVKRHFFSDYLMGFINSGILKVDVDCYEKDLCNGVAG


Assays:
[1] = target: T1, human LY6H, endogenous on cancer cell …; experiment: flow cytometry, antibody titrated 0.1-100 nM on MOLT3 cells, MFI; upper panel and table, column MOLT3_EC50 (nM)
Procedure: (§1) The assay uses 3-5 fold dilutions (from 100 nM to 0.1 nM) of antibody of a stock antibody concentration (100 nM) in binding buffer. Serial diluted antibodies were incubated with live cells on ice for 30 minutes, after a brief wash, cells were incubated with Alexa Fluro® 488-conjugated anti-human IgG secondary antibody @1:100, or 15 μg/ml (709-546-149, Jackson ImmunoResearch). Acquisition of the MFI (Median Fluorescent Intensity) was performed on a MACSQuant® Flow Cytometers (Miltenyi Biotec). EC₅₀ was calculated using Dose-response EC₅₀ shift by global fitting from GraphPad Prism.
(§2) An estimate of affinity is interpreted from one-half the concentration at which antibody binding first achieves saturation.

[2] = target: T1, human LY6H, endogenous on cancer cell …; experiment: flow cytometry, antibody titrated 0.1-100 nM on H446 cells, MFI; column H446_EC50 (nM)
Procedure: as §1, §2

[3] = target: T1, human LY6H, endogenous on cancer cell …; experiment: flow cytometry, antibody titrated 0.1-100 nM on H526 cells, MFI; column H526_EC50 (nM); curve has no plateau at 100 nM
Procedure: as §1, §2

[4] = target: T1, human LY6H, endogenous on cancer cell …; experiment: flow cytometry, antibody titrated 0.1-100 nM on DMS79 cells, MFI; upper panel and table, column DMS79_EC50 (nM)
Procedure: as §1, §2

[5] = target: T2, recombinant human LY6H-ECD (C-terminal …); experiment: Octet Red BLI, antibody on Protein A biosensor, recombinant human LY6H in solution
Procedure: (§3) Affinity: The affinity of antibodies to various recombinant LY6H protein was determined on an Octet Red™ instrument. After loading reagents into a 96-well plate, the Octet Red with Protein A-conjugated biosensors was programmed as follows: 30 seconds for baseline #1; 120 seconds to immobilize the antibody; 30 seconds for baseline #2; 300 seconds for association of antibody to recombinant LY6H; and 300-600 seconds for dissociation of recombinant LY6H from the antibody.

[6] = target: T1, human LY6H, endogenous on cancer cell …; experiment: flow cytometry, antibody titrated 0.1-100 nM on H526 cells, MFI; column H526_EC50 (nM); value lies above the highest concentration tested, curve has no plateau
Procedure: as §1, §2

[7] = target: T1, human LY6H, endogenous on cancer cell …; experiment: flow cytometry, antibody titrated 0.1-100 nM on DMS79 cells, MFI; lower panel and table, column DMS79_EC50 (nM)
Procedure: as §1, §2

[8] = target: T1, human LY6H, endogenous on cancer cell …; experiment: flow cytometry, antibody titrated 0.1-100 nM on MOLT3 cells, MFI; lower panel and table, column MOLT3_EC50 (nM)
Procedure: as §1, §2

[9] = target: T2, recombinant human LY6H-ECD (C-terminal …); experiment: Octet (bio-layer interferometry), table row Octet; antigen not named on the sheet, recombinant human LY6H per paragraph 455 and Table 8 (Table 8 prints 33 for 1F8)
Procedure: as §3

[10] = target: T3, Macaca fascicularis LY6H expressed on …; experiment: on-cell affinity by flow cytometry: unconjugated 1F8 (0.05-100 nM) competes with 1 nM PE-conjugated 1F8 on 293T cells expressing Macaca fascicularis LY6H (per legend paragraph 131); table row 293T-mmLY6H
Procedure: (§4) Serial diluted antibodies were incubated with 293 cells expressing either human or Macaca fascicularis on ice for 4 hours, after a brief wash. Acquisition of the MFI (Median Fluorescent Intensity) was performed on a MACSQuant® Flow Cytometers (Miltenyi Biotec). On cell affinity (Kd) was calculated using dose-response EC50 shift by global fitting from GraphPad Prism™.
as §4, with “live” for “293”, “cells” for “cells expressing either human or Macaca fascicularis”, “Dose-response EC₅₀” for “dose-response EC50”

[11] = target: T1, human LY6H, endogenous on cancer cell …; experiment: flow cytometry, antibody titrated 0.1-100 nM on H526 cells, MFI; column H526_EC50 (nM)
Procedure: as §1, §2

[12] = target: T3, Macaca fascicularis LY6H expressed on …; experiment: flow cytometry on 293 cells expressing Macaca fascicularis LY6H (293-neo-cyno LY6H); antibody 1 ug/ml per paragraph 484; solid histogram = hIgG1 control [cont.]
Procedure: Staining for flow cytometry was performed in 1× cold PBS with 0.5% BSA.

[13] = target: T3, Macaca fascicularis LY6H expressed on …; experiment: on-cell affinity by flow cytometry: unconjugated 12G7 (0.05-100 nM) competes with 1 nM PE-conjugated 12G7 on 293T cells expressing Macaca fascicularis LY6H (per legend paragraph 131); table row 293T-mmLY6H
Procedure: as §4
as §4, with “live” for “293”, “cells” for “cells expressing either human or Macaca fascicularis”, “Dose-response EC₅₀” for “dose-response EC50”

| Binder | EC50 [1] [nM] | EC50 [2] [nM] | EC50 [4] [nM] | Kd [5] [nM] | EC50 [7] [nM] | EC50 [8] [nM] | other results |
| --- | --- | --- | --- | --- | --- | --- | --- |
| 11D9 (antibody, V domains shown, also called 11D9_19D5) VH: QVQLQESGPGLVKPSGTLSLTCTVSGGSISSSSWWSWVRLPPGKGLEWIGEIYHSGSTNYNPSLKSRVTISVDKSKNQFSLKLSSVTAADTAVYYCGGVRGVVMAFDIWGQGTMVTVSS VL: not shown | 1.4 | 2.6 | 2.2 | 31 | – | – | EC50 [3]: 13.2 nM |
| 22A5_19A5 (antibody, V domains shown, human anti-LY6H antibody) VH: QVQLVESGGGVVQPGRSLRLSCAASGFTFSSYGMHWVRQAPGKGLEWVAVIWYDGSNKYYADSVKGRFTISRDNSKNTLYLQMNSLRAEDTAVYYCARDLWFGESRGGMDVWGQGTTVTVSS VL: not shown | – | – | – | – | – | – | EC50 [6]: 122 nM |
| 2B11 (antibody, V domains shown, also called 2B11_25D1) VH: QVQLVESGGGVVQPGRSLRLSCAASGFTFSNYGMHWVRQAPGKGLEWVAVIWYDGSNKYYADSVKGRFTISRDNSKNTLYLQMNSLRTEDTAVYYCARSIVVVTATLDYWGQGTLVTVSS VL: not shown | – | – | – | – | 3.4 | 3.9 | – |
| 1F8 (antibody, V domains shown, also called 1F8_25B6; IF8) VH: QVQLVESGGGVVQPGRSLRLSCAASGFTFSNYGMHWVRQAPGKGLEWVAVIWYDGSYKYYADSVKGRFTISRDNSKNTLYLQMNSLRTEDTAVYYCARSIVVVTATLDYWGQGTLVTVSS VL: not shown | – | – | – | 33 | 3.3 | 2.7 | Kd [9]: 31 nM; Kd [10]: 21 nM |
| 34H6 (antibody, V domains shown, also called 34H6_20A1) VH: QVQLVESGGGVVQPGRSLRLSCAASGFTFSSYGMHWVRQAPGKGLEWVAVIWYDGSNKYYADSVKGRFTISRDNSKNTLYLQMNSLRAEDTAVYYCARSIVVVTGFGDYWGQGTLVTVSS VL: not shown | 0.7 | 2.4 | 0.9 | – | – | – | EC50 [11]: 2.9 nM |
| 6D11 (antibody, V domains shown, Recombinant antibody made in CHO cells; also called 6D11_25D6) VH: QVQLQQWGAGLFKPSETLSLTCAVYGGSFSGSLWSWIRQPPGKGLEWIGEINHSGSTNYTPSLKSRVTISVDTSKNQFSLKLTSVTAADTAVYYCARGRHIVVVTAIHSPFDYWGQGTLVTVSS VL: DIQMTQSPSSLSASVGDRVTITCRASQGISNYLAWYQQKPGKVPKLLIFAASTLQSGVPSRFSGSGSGTDFTLTISSLQPEDVATYYCQKYNSAPRTFGQGTKLEIK | – | – | – | 22 | 1.3 | 0.6 | binding result [12]: binds |
| 12G7 (antibody, V domains shown, Recombinant antibody from H2L2 mice (human variable regions), made in CHO cells, purified on Protein A and detected with anti-human IgG; also called 12G7_19A2; anti-LY6H antibody (12G7)) VH: QVQLQQWGAGLLKPSETLSLTCAVYGGSFSGYYWSWIRQPPGKGLEWIGEINHSGSTYYNPSLKSRVTMSVDTSKNQFSLKLSSVTAADTAVYYCAKRWELGAFDIWGQGTMVTVSS VL: DIQMTQSPSSLSASVGDRVTITCRASQGISNYLAWYQQKPGKVPKLLIYAASTLQSGVPSRFSGSGSGTDFTLTISSLQPEDVATYYCQKYNSAPRTFGQGTKLEIK | 0.7 | 3 | 2.4 | 4 | 1.9 | 0.8 | Kd [13]: 14.5 nM; EC50 [11]: 1.9 nM |
| 10B10 (antibody, V domains shown, also called 10B10_25A1) VH: QVQLQQWGAGLLKPSETLSLTCAVYGGSFSGYYWHWIRQPPGKGLEWIGEINHSESTKYNPSLKSRVTISVDTSKNQFSLKLSSVTGADTAVYYCARGQHIVVVTDSLGDYWGQGTLVTVSS VL: DIQMTQSPSSLSASVGDRVTITCRASQGISNYLAWYQQKPGKVPKLLIYAASTLQSGVPSRFSGSGSGTDFTLTISSLQPEDVATYYCQKYNSAPRTFGQGTKLEIK | – | – | – | 47 | 2 | 0.7 | – |
| 10B10-S54A (antibody, V domains shown) VH: QVQLQQWGAGLLKPSETLSLTCAVYGGSFSGYYWHWIRQPPGKGLEWIGEINHAESTKYNPSLKSRVTISVDTSKNQFSLKLSSVTGADTAVYYCARGQHIVVVTDSLGDYWGQGTLVTVSS VL: DIQMTQSPSSLSASVGDRVTITCRASQGISNYLAWYQQKPGKVPKLLIYAASTLQSGVPSRFSGSGSGTDFTLTISSLQPEDVATYYCQKYNSAPRTFGQGTKLEIK | – | – | – | 42 | – | – | – |
| 6D11-41B4 (antibody, V domains shown) VH: QVQLQQWGAGLFKPSETLSLTCAVYGGSFSGSLWSWIRQPPGKGLEWIGEINHAGSTQYTPSLKSRVTISVDTSKNQFSLKLTSVTAADTAVYYCARGRHIVVVTAIHSPFDYWGQGTLVTVSS VL: DIQMTQSPSSLSASVGDRVTITCRASQGISNYLAWYQQKPGKVPKLLIFAASTLQSGVPSRFSGSGSGTDFTLTISSLQPEDVATYYCQKYNSAPRTFGQGTKLEIK | – | – | – | 25 | – | – | – |
| 12G7-S54A (antibody, V domains shown) VH: QVQLQQWGAGLLKPSETLSLTCAVYGGSFSGYYWSWIRQPPGKGLEWIGEINHAGSTYYNPSLKSRVTMSVDTSKNQFSLKLSSVTAADTAVYYCAKRWELGAFDIWGQGTMVTVSS VL: DIQMTQSPSSLSASVGDRVTITCRASQGISNYLAWYQQKPGKVPKLLIYAASTLQSGVPSRFSGSGSGTDFTLTISSLQPEDVATYYCQKYNSAPRTFGQGTKLEIK | – | – | – | 4 | – | – | – |
| 23F3 (antibody, V domains shown, also called 23F3_19B2) VH: QVQLQESGPGLVKPSGTLSLTCAVSGGSISSSNWWSWVRQPPGKGLEWIGEIYHSGSTNYNPSLKSRVTISVDKSKNQFSLKLSSVTAADTAVYYCARVDILTGGNFDYWGQGTLVTVSS VL: not shown | 5.4 | 2.3 | 17.8 | – | – | – | EC50 [3]: 73.5 nM |

— US20250319180A1 (BLUEFIN BIOMEDICINE, published 2025)
